Source: US20050137135A1 (priority 2002, published 2005)
Square brackets hold non-standard residues; d marks the D form. Ends that are not written are not given here. Peptide text beside a SMILES is read from it. Ahx = NCCCCCC(=O)O

B1: GIP(1-6)(EKEK)(19-30)NH2 (peptide)
peptide: YAEGTFEKEKQQDFVNWLLAQK-NH2
notes: range 1-6;range 19-30
B2: GIP(1-6)(AAAA)(19-30)NH2 (peptide)
peptide: YAEGTFAAAAQQDFVNWLLAQK-NH2
notes: range 1-6;range 19-30; also called GIP(l-6)(AAAA)(19-30)NH2
B3: GIP(1-6)(19-30)NH2 (peptide, UniProt P09681 52-57, looked up)
peptide: YAEGTFQQDFVNWLLAQK-NH2
notes: range 1-6;range 19-30; Core deletion, no linker (formula 5, C not used, truncated at residue 30)
B4: GIP(1-14)(AAAA)(19-30)NH2 (peptide)
peptide: YAEGTFISDYSIAMAAAAQQDFVNWLLAQK-NH2
notes: range 1-14;range 19-30
B5: GIP(1-6)(EKEEKEKEEKE)(19-30)NH2 (peptide)
peptide: YAEGTFEKEEKEKEEKEQQDFVNWLLAQK-NH2
notes: range 1-6;range 19-30; The expected mass 3574.0 fits the 11-residue linker as printed
B6: GIP(1-6)(Ahx)3(19-30)NH2 (peptide, UniProt P09681 52-57, looked up)
peptide: YAEGTF[Ahx][Ahx][Ahx]QQDFVNWLLAQK-NH2
modifications: N-terminus assumed
SMILES: CC(C)C[C@H](NC(=O)[C@H](CC(C)C)NC(=O)[C@H](Cc1c[nH]c2ccccc12)NC(=O)[C@H](CC(N)=O)NC(=O)[C@@H](NC(=O)[C@H](Cc1ccccc1)NC(=O)[C@H](CC(=O)O)NC(=O)[C@H](CCC(N)=O)NC(=O)[C@H](CCC(N)=O)NC(=O)CCCCCNC(=O)CCCCCNC(=O)CCCCCNC(=O)[C@H](Cc1ccccc1)NC(=O)[C@@H](NC(=O)CNC(=O)[C@H](CCC(=O)O)NC(=O)[C@H](C)NC(=O)[C@@H](N)Cc1ccc(O)cc1)[C@@H](C)O)C(C)C)C(=O)N[C@@H](C)C(=O)N[C@@H](CCC(N)=O)C(=O)N[C@@H](CCCCN)C(N)=O
notes: range 52-57
B7: GIP(1-6)(Ahx)2(19-30)NH2 (peptide, UniProt P09681 52-57, looked up)
peptide: YAEGTF[Ahx][Ahx]QQDFVNWLLAQK-NH2
modifications: N-terminus assumed
SMILES: CC(C)C[C@H](NC(=O)[C@H](CC(C)C)NC(=O)[C@H](Cc1c[nH]c2ccccc12)NC(=O)[C@H](CC(N)=O)NC(=O)[C@@H](NC(=O)[C@H](Cc1ccccc1)NC(=O)[C@H](CC(=O)O)NC(=O)[C@H](CCC(N)=O)NC(=O)[C@H](CCC(N)=O)NC(=O)CCCCCNC(=O)CCCCCNC(=O)[C@H](Cc1ccccc1)NC(=O)[C@@H](NC(=O)CNC(=O)[C@H](CCC(=O)O)NC(=O)[C@H](C)NC(=O)[C@@H](N)Cc1ccc(O)cc1)[C@@H](C)O)C(C)C)C(=O)N[C@@H](C)C(=O)N[C@@H](CCC(N)=O)C(=O)N[C@@H](CCCCN)C(N)=O
notes: range 52-57
B8: GIP(1-6)(Ahx)1(19-30)NH2 (peptide, UniProt P09681 52-57, looked up)
peptide: YAEGTF[Ahx]QQDFVNWLLAQK-NH2
modifications: N-terminus assumed
SMILES: CC(C)C[C@H](NC(=O)[C@H](CC(C)C)NC(=O)[C@H](Cc1c[nH]c2ccccc12)NC(=O)[C@H](CC(N)=O)NC(=O)[C@@H](NC(=O)[C@H](Cc1ccccc1)NC(=O)[C@H](CC(=O)O)NC(=O)[C@H](CCC(N)=O)NC(=O)[C@H](CCC(N)=O)NC(=O)CCCCCNC(=O)[C@H](Cc1ccccc1)NC(=O)[C@@H](NC(=O)CNC(=O)[C@H](CCC(=O)O)NC(=O)[C@H](C)NC(=O)[C@@H](N)Cc1ccc(O)cc1)[C@@H](C)O)C(C)C)C(=O)N[C@@H](C)C(=O)N[C@@H](CCC(N)=O)C(=O)N[C@@H](CCCCN)C(N)=O
notes: range 52-57
B9: GIP(1-14)(19-30)NH2 (peptide, UniProt P09681 52-65, looked up)
peptide: YAEGTFISDYSIAMQQDFVNWLLAQK-NH2
notes: range 1-14;range 19-30; Core deletion, no linker (formula 6, D unused, truncated at residue 30)
B10: GIP(1-14)(EKEK)(19-30)NH2 (peptide)
peptide: YAEGTFISDYSIAMEKEKQQDFVNWLLAQK-NH2
notes: range 1-14;range 19-30

Experiments:
[1] = molecular target: T1, rat pancreatic islet (wild type) GIP-receptor (Rattus norvegicus, UniProt P43219); experiment: cAMP production in CHO-K1 cells expressing the GIP-receptor (wtGIP-R1 cells); format: cell-based; conditions: Table 3; cyclic AMP stimulated by 20 μM peptide if plateau levels were not achieved
T1 construct: expressed in transfected cells; host or cells: CHO-K1 (Chinese hamster ovary)
T1 sequence (P43219 19-455): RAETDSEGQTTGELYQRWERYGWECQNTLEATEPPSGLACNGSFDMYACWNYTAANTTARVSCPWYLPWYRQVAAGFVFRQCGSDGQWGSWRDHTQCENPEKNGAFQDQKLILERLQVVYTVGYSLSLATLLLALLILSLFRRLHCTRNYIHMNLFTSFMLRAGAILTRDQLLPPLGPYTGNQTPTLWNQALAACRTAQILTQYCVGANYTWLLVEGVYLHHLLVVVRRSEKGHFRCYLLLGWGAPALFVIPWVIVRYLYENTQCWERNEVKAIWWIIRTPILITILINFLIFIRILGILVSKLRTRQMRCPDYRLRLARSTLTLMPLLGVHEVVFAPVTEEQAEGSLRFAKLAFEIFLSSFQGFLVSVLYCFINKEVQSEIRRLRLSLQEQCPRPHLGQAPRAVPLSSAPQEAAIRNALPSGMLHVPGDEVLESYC
Experimental: (§1) Cells were cultured in DMEM/F12, supplemented with 10% newborn calf serum, 50 units/ml penicillin G, and 50 μg/ml streptomycin (Culture media and antibiotics from Gibco BRL, Life Technologies). Cells were grown in 75 cm^2 flasks until 80-90% confluent, when they were split and seeded onto 24 well plates at a density of 50,000 cells/well. Experiments were carried out 48 h later.
Cells were extracted with 70% ethanol and cAMP levels measured by radioimmunoassay (Biomedical Technologies, Stoughton, Mass.). Data are expressed as fmol/1000 cells or % maximal GIP1-42-stimulated cAMP production (inhibition experiments).

[2] = molecular target: T1, rat pancreatic islet (wild type) GIP-receptor; experiment: biochemical; format: binding; conditions: read-out: Receptor Binding % Displacement at 20 μM
Experimental: as §1
(§2) Binding studies using ^125I-labeled spGIP1-42, purified by high performance liquid chromatography (HPLC), were performed essentially as described previously-[21]. wtGIP-R1 Cells (1-5×10^5/well) were washed twice at 4° C. in binding buffer (BB), consisting of DMEM/F12 (GIBCO), 15 mM HEPES, 0.1% bovine serum albumin (BSA), 1% Trasylol (aprotinin; Bayer), pH 7.4. They were incubated for 12-16 h at 4° C. with ^125I-spGIP (50,000 cpm) in the presence or absence of unlabeled GIP1-42 or analogue. Following incubation, cells were washed twice with ice cold buffer, solubilized with 0.1 M NaOH (1 ml), and transferred to culture tubes for counting of cell-associated radioactivity. Nonspecific binding was defined as that measured in the presence of 1 μM GIP1-42 or GIP1-30, and specific binding expressed as % of binding in the absence of competitor (% B/Bo).

[3] = molecular target: T2, rat pancreatic islet (wild type) GIP-receptor stably expressed on CHO-K1 cells (rat, UniProt P43219 19-455); experiment: cell-based or functional assay
T2 sequence (looked up): T1 sequence (P43219 19-455)

[4] = molecular target: T2, rat pancreatic islet (wild type) …; experiment: competition with 125I-GIP on CHO-K1 cells transfected with rat GIP receptor
Experimental: as §1, with “cm²” for “cm^2”
as §2, with “¹²⁵I-labeled spGIP₁₋₄₂,” for “^125I-labeled spGIP1-42,”, “(1-5×10⁵/well)” for “(1-5×10^5/well)”, “¹²⁵I-spGIP” for “^125I-spGIP”, “GIP₁₋₄₂” for “GIP1-42”, “GIP₁₋₃₀,” for “GIP1-30,”

[5] = molecular target: T2, rat pancreatic islet (wild type) …; experiment: displacement of 125I-GIP from CHO-K1 cells transfected with rat GIP receptor, 20 µM peptide
Experimental: as §1, with “cm²” for “cm^2”
as §2, with “¹²⁵I-labeled spGIP₁₋₄₂,” for “^125I-labeled spGIP1-42,”, “(1-5×10⁵/well)” for “(1-5×10^5/well)”, “¹²⁵I-spGIP” for “^125I-spGIP”, “GIP₁₋₄₂” for “GIP1-42”, “GIP₁₋₃₀,” for “GIP1-30,”

| Molecule | cAMP Production Max. cAMP (Fold Basal) [1] | inhibition at 20 µM [2] | Max. cAMP (Fold Basal) [3] | IC50 [4] | % Displacement at 20 µM [5] | cAMP Production EC50 [3] |
| --- | --- | --- | --- | --- | --- | --- |
| CC[C@H](C)[C@H](NC(=O)[C@H](CO)NC(=O)[C@H](Cc1ccc(O)cc1)NC(=O)[C@H](CC(=O)O)NC(=O)[C@H](CO)NC(=O)[C@@H](NC(=O)[C@H](Cc1ccccc1)NC(=O)[C@@H](NC(=O)CNC(=O)[C@H](CCC(=O)O)NC(=O)[C@H](C)NC(=O)[C@@H](N)Cc1ccc(O)cc1)[C@@H](C)O)[C@@H](C)CC)C(=O)N[C@@H](C)C(=O)N[C@@H](CCSC)C(=O)NCCCCCC(=O)NCCCCCC(=O)N[C@@H](CCC(N)=O)C(=O)N[C@@H](CCC(N)=O)C(=O)N[C@@H](CC(=O)O)C(=O)N[C@@H](Cc1ccccc1)C(=O)N[C@H](C(=O)N[C@@H](CC(N)=O)C(=O)N[C@@H](Cc1c[nH]c2ccccc12)C(=O)N[C@@H](CC(C)C)C(=O)N[C@@H](CC(C)C)C(=O)N[C@@H](C)C(=O)N[C@@H](CCC(N)=O)C(=O)N[C@@H](CCCCN)C(N)=O)C(C)C [GIP(1-14)(Ahx)2(19-30)NH2] (H-YAEGTFISDYSIAM[Ahx][Ahx]QQDFVNWLLAQK-NH2; N-terminus assumed) | 95.9 ± 3.2 Fold Basal | 85.8 ± 1.6% |  |  |  |  |
| YAEGTFISDYSIAMAAAAQQDFVNWLLAQK-NH2 [GIP(1-14)(AAAA)(19-30)NH2] | 82.1 ± 2.8 Fold Basal | 100 ± 0.9% |  |  |  |  |
| YAEGTFQQDFVNWLLAQK-NH2 [GIP(1-6)(19-30)NH2] | 1.81 ± 0.42 Fold Basal | 88.2 ± 0.7% |  |  |  |  |
| YAEGTFEKEKQQDFVNWLLAQK-NH2 [GIP(1-6)(EKEK)(19-30)NH2] | 8.17 ± 0.87 Fold Basal | 86.8 ± 1.6% |  |  |  |  |
| CC(C)C[C@H](NC(=O)[C@H](CC(C)C)NC(=O)[C@H](Cc1c[nH]c2ccccc12)NC(=O)[C@H](CC(N)=O)NC(=O)[C@@H](NC(=O)[C@H](Cc1ccccc1)NC(=O)[C@H](CC(=O)O)NC(=O)[C@H](CCC(N)=O)NC(=O)[C@H](CCC(N)=O)NC(=O)CCCCCNC(=O)[C@H](Cc1ccccc1)NC(=O)[C@@H](NC(=O)CNC(=O)[C@H](CCC(=O)O)NC(=O)[C@H](C)NC(=O)[C@@H](N)Cc1ccc(O)cc1)[C@@H](C)O)C(C)C)C(=O)N[C@@H](C)C(=O)N[C@@H](CCC(N)=O)C(=O)N[C@@H](CCCCN)C(N)=O [GIP(1-6)(Ahx)1(19-30)NH2] (H-YAEGTF[Ahx]QQDFVNWLLAQK-NH2; N-terminus assumed) | 95.9 ± 8.6 Fold Basal | 62 ± 4.3% |  |  |  |  |
| B1 |  |  | 8.17 fold basal | 2090 nM | 86.8% |  |
| B2 |  |  | 7.21 fold basal | 2410 nM | 88.7% |  |
| B3 |  |  | 1.81 fold basal | 2740 nM | 88.2% |  |
| B4 |  |  | 82.1 fold basal | 66.3 nM | 100% | 0.0587 nM |
| B5 |  |  | 84.9 fold basal | 4270 nM | 75.1% | 8390 nM |
| B6 |  |  | 13.5 fold basal | 4030 nM | 67.1% |  |
| B7 |  |  | 2.55 fold basal | 4980 nM | 75.3% |  |
| B8 |  |  | 95.9 fold basal | 8730 nM | 62% | 14500 nM |
| B9 |  |  | 127 fold basal | 1370 nM | 95.4% | 78.7 nM |
| B10 |  |  | 80.6 fold basal | 26 nM | 98.7% | 0.077 nM |
